Laboratory results reported in PMC1559926 (2006).

Molecular target: T1, Caveolin-1 1-178 (UniProt Q03135)
T1 chain: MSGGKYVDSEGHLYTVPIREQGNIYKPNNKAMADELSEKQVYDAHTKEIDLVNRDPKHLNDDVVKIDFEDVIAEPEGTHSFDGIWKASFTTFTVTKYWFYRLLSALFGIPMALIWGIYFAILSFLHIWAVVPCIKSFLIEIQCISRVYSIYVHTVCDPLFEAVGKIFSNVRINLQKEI
Experiment: given as Ka

B1: PrP (protein)
chain: not shown
Kd: ~1.18 nM
